The values below are quoted from earlier work in patent US10870689B2, “ApoM-Fc fusion proteins, complexes thereof with sphingosine 1-phosphate (S1P), and methods for treating vascular and non-vascular diseases” (Children's Medical Center Corporation, priority 2016, dated 2020).

The conditions of data set [1]: Sevvana et al. 2010; read-out: relative affinity for S1P.
For data set [2] the following is noted: not associated with HDL; Faber et al. 2006.

B1: recombinant ApoM: Bacterially expressed recombinant human ApoM (protein, UniProt O95445 1-188, looked up)
Apolipoprotein M: MFHQIWAALLYFYGIILNSIYQCPEHSQLTTLGVDGKEFPEVHLGQWYFIAGAAPTKEELATFDPVDNIVFNMAAGSAPMQLHLRATIRMKDGLCVPRKWIYHLTEGSTDLRTEGRPDMKTELFSSSCPGGIMLNETGQGYQRFLLYNRSPHPPEKCVEEFKSLTSCLDSKAFLLTPRNQEACELSNN
Take B1: in data set [1], the Kd was ~1 µM.

B2: Free ApoM: ApoM that is not associated with HDL (protein, UniProt O95445 1-188, looked up)
Apolipoprotein M: B1 Apolipoprotein M
For B2, in data set [2], the in vivo half-life result is listed as “less than 15 minutes”.
